Reference: the RNAGym collection of RNA variant scans (doi:10.7554/elife.80360)

B1: CPEB3 Ribozyme (parent)
chain: GGGGGCCACAGCAGAAGCGUUCACGUCGCGGCCCCUGUCAGAUUCUGGUGAAUCUGCGAAUUCUGCUGU

Variants of: B1
Experiment: self-cleavage, relative activity (ratio to wild type); higher = more cleavage; co-transcriptional

| Variant | self-cleavage |
| --- | --- |
| GGGGGCCACAGCAGAAGCGUUCACGUCGCGGCCCCUGUCACAUUCUGGUGAAACUGCGAAUUCUGCUGU [G41C U53A] | 0.463 |
| GGGGGCCACAGCAGAAGCGUUCACGUCGCGGCCCCUGUCACAUUCUGGUGAACCUGCGAAUUCUGCUGU [G41C U53C] | 0.283 |
| GGGGGCCACAGCAGAAGCGUUCACGUCGCGGCCCCUGUCACAUUCUGGUGAAUCUGCGAAUUCUGCUCU [G41C G68C] | 0.902 |
| GGGGGCCACAGCAGAAGCGUUCACGUCGCGGCCCCUGUCACAUUCUGGUGAAUCUGCGAAUUCUGCUAU [G41C G68A] | 0.927 |
| GGGGGCCACAGCAGAAGCGUUCACGUCGCGGCCCCUGUCACAUUCUGGUGAAUCUGCGAAUUCUGCUUU [G41C G68U] | 0.933 |
| GGGGGCCACAGCAGAAGCGUUCACGUCGCGGCCCCUGUCAUAUUCUGGUGAAUCUGCGAAUUCUGGUGU [G41U C66G] | 0.428 |
| GGGGGCCACAGCAGAAGCGUUCACGUCGCGGCCCCUGUCAUAUUCUGGUGAAUCUGCGAAUUCUGAUGU [G41U C66A] | 0.441 |
| GGGGGCCACAGCAGAAGCGUUCACGUCGCGGCCCCUGUCAUAUUCUGGUCAAUCUGCGAAUUCUGCUGU [G41U G50C] | 0.54 |
| GGGGGCCACAGCAGAAGCGUUCACGUCGCGGCCCCUGUCACAUUCUGGUGAAUCUGCAAAUUCUGCUGU [G41C G58A] | 0.772 |
| GGGGGCCACAGCAGAAGCGUUCACGUCGCGGCCCCUGUCACAAUCUGGUGAAUCUGCGAAUUCUGCUGU [G41C U43A] | 0.31 |
| GGGGGCCACAGCAGAAGCGUUCACGUCGCGGCCCCUGUCACAGUCUGGUGAAUCUGCGAAUUCUGCUGU [G41C U43G] | 0.25 |
| GGGGGCCACAGCAGAAGCGUUCACGUCGCGGCCCCUGUCACACUCUGGUGAAUCUGCGAAUUCUGCUGU [G41C U43C] | 0.486 |
| GGGGGCCACAGCAGAAGCGUUCACGUCGCGGCCCCUGUCACAUUCUGGUGAAUCUACGAAUUCUGCUGU [G41C G56A] | 0.667 |
| GGGGGCCACAGCAGAAGCGUUCACGUCGCGGCCCCUGUCACAUUCUGGUGAAUCUUCGAAUUCUGCUGU [G41C G56U] | 0.369 |
| GGGGGCCACAGCAGAAGCGUUCACGUCGCGGCCCCUGUCAUAUUCUGGUGACUCUGCGAAUUCUGCUGU [G41U A52C] | 0.431 |
| GGGGGCCACAGCAGAAGCGUUCACGUCGCGGCCCCUGUCAUAUUCUGGUGAGUCUGCGAAUUCUGCUGU [G41U A52G] | 0.749 |
| GGGGGCCACAGCAGAAGCGUUCACGUCGCGGCCCCUGUCACAUUCUGGUGAAUCUGCGAAGUCUGCUGU [G41C U61G] | 0.345 |
| GGGGGCCACAGCAGAAGCGUUCACGUCGCGGCCCCUGUCACAUUCUGGUGAAUCUGCGAACUCUGCUGU [G41C U61C] | 0.241 |
| GGGGGCCACAGCAGAAGCGUUCACGUCGCGGCCCCUGUCAUAUACUGGUGAAUCUGCGAAUUCUGCUGU [G41U U44A] | 0.339 |
| GGGGGCCACAGCAGAAGCGUUCACGUCGCGGCCCCUGUCAUAUGCUGGUGAAUCUGCGAAUUCUGCUGU [G41U U44G] | 0.336 |

| Variant | self-cleavage |
| --- | --- |
| GGGGGCCACAGCAGAAGCGUUCACGUCGCGGCCCCUGUCACAUUCUAGUGAAUCUGCGAAUUCUGCUGU [G41C G47A] | 0.904 |
| GGGGGCCACAGCAGAAGCGUUCACGUCGCGGCCCCUGUCAUAUUCUGGUGAAUUUGCGAAUUCUGCUGU [G41U C54U] | 0.94 |
| GGGGGCCACAGCAGAAGCGUUCACGUCGCGGCCCCUGUCAUAUUCUGGUGAAUGUGCGAAUUCUGCUGU [G41U C54G] | 0.95 |
| GGGGGCCACAGCAGAAGCGUUCACGUCGCGGCCCCUGUCAUAUUCUGGUGAAUAUGCGAAUUCUGCUGU [G41U C54A] | 0.972 |
| GGGGGCCACAGCAGAAGCGUUCACGUCGCGGCCCCUGUCAUAUUCUGGUGAAGCUGCGAAUUCUGCUGU [G41U U53G] | 0.604 |
| GGGGGCCACAGCAGAAGCGUUCACGUCGCGGCCCCUGUCAUAUUCUGGUGAACCUGCGAAUUCUGCUGU [G41U U53C] | 0.364 |
| GGGGGCCACAGCAGAAGCGUUCACGUCGCGGCCCCUGUCAUAUUCUGGCGAAUCUGCGAAUUCUGCUGU [G41U U49C] | 0.849 |
| GGGGGCCACAGCAGAAGCGUUCACGUCGCGGCCCCUGUCACAUUCUGUUGAAUCUGCGAAUUCUGCUGU [G41C G48U] | 0.966 |
| GGGGGCCACAGCAGAAGCGUUCACGUCGCGGCCCCUGUCACAUUCUGCUGAAUCUGCGAAUUCUGCUGU [G41C G48C] | 0.869 |
| GGGGGCCACAGCAGAAGCGUUCACGUCGCGGCCCCUGUCAUAUUAUGGUGAAUCUGCGAAUUCUGCUGU [G41U C45A] | 0.422 |
| GGGGGCCACAGCAGAAGCGUUCACGUCGCGGCCCCUGUCAUAUUGUGGUGAAUCUGCGAAUUCUGCUGU [G41U C45G] | 0.47 |
| GGGGGCCACAGCAGAAGCGUUCACGUCGCGGCCCCUGUCAUAUUCUGGUGAAUCUGCGCAUUCUGCUGU [G41U A59C] | 0.412 |
| GGGGGCCACAGCAGAAGCGUUCACGUCGCGGCCCCUGUCAUAUUCUGGUGAAUCUGCGGAUUCUGCUGU [G41U A59G] | 0.933 |
| GGGGGCCACAGCAGAAGCGUUCACGUCGCGGCCCCUGUCACAUCCUGGUGAAUCUGCGAAUUCUGCUGU [G41C U44C] | 0.342 |
| GGGGGCCACAGCAGAAGCGUUCACGUCGCGGCCCCUGUCACAUACUGGUGAAUCUGCGAAUUCUGCUGU [G41C U44A] | 0.377 |
| GGGGGCCACAGCAGAAGCGUUCACGUCGCGGCCCCUGUCACAUGCUGGUGAAUCUGCGAAUUCUGCUGU [G41C U44G] | 0.317 |
| GGGGGCCACAGCAGAAGCGUUCACGUCGCGGCCCCUGUCACAUUCUGGUGAAUCUGCGAAUUCUGCUGC [G41C U69C] | 1.01 |
| GGGGGCCACAGCAGAAGCGUUCACGUCGCGGCCCCUGUCACAUUCUGGUGAAUCUGCGAAUUCUGCUGG [G41C U69G] | 0.959 |
| GGGGGCCACAGCAGAAGCGUUCACGUCGCGGCCCCUGUCAUAUUCUGGUGAAUCGGCGAAUUCUGCUGU [G41U U55G] | 0.324 |
